Measured values from patent US20110045007A1 (Genmab, published 2011).

Biological target: T1, human C1q (human, UniProt P02745 23-245; P02746 28-253; P02747 29-245)
T1 construct: Bought protein; also called first component of the classical complement cascade
Test: ELISA, antibody coated, C1q detected with rabbit anti-human C1q
Experimental: In short, microtiter ELISA plates (Greiner, Germany) were coated overnight at RT with the test antibodies serially diluted from 10 μg/ml to 0.06 μg/ml in PBS. Plates were emptied and wells were blocked with 200 μl ELISA-diluent per well (0.1 M NaPO₄, 0.1 M NaCl, 0.1% gelatin and 0.05% Tween-20), at RT for 30 minutes. […] After washing the plates (3×) with PBST, wells were incubated with HRP-conjugated swine anti-rabbit IgG-Fc (DAKO, P0300, lot #069) diluted in ELISA diluent (1:2500, 100 μl/well, RT, 1 hour). Thereafter, plates were washed thrice and assays were developed with freshly prepared 1 mg/ml ABTS solution (ABTS: 2,2′-azino-bis[3-ethylbenzthiazoline-6-sulfonic acid]); 2 tablets of 5 mg in 10 ml ABTS buffer, Boehringer Mannheim, Ingelheim, Germany) at RT in the dark for 30 minutes.

T1 sequence (P02745 23-245 limits assumed, chain 1 of 3): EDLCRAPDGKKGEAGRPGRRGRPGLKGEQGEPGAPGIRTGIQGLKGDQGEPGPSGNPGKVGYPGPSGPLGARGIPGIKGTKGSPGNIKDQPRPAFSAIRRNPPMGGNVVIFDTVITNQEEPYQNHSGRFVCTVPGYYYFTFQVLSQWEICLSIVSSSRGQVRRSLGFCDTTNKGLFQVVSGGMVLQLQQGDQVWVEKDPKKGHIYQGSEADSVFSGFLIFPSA
T1 sequence (P02746 28-253 limits assumed, chain 2 of 3): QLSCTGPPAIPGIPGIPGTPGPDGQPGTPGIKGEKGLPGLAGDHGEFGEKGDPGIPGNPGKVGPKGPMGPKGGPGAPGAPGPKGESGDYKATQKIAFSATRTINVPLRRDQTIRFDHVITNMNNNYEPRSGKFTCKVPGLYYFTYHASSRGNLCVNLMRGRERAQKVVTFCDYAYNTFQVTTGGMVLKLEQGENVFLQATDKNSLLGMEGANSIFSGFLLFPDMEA
T1 sequence (P02747 29-245 limits assumed, chain 3 of 3): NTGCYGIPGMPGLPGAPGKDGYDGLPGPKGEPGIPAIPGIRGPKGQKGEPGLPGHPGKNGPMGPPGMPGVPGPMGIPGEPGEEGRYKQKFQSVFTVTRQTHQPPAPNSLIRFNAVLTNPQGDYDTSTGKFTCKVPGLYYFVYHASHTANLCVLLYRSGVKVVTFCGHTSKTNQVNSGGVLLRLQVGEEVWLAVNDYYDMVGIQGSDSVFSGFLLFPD

B1: 7D8-HG (antibody)
heavy: EVQLVESGGGLVQPDRSLRLSCAASGFTFHDYAMHWVRQAPGKGLEWVSTISWNSGTIGYADSVKGRFTISRDNAKNSLYLQMNSLRAEDTALYYCAKDIQYGNYYYGMDVWGQGTTVTVSSASTKGPSVFPLAPCSRSTSESTAALGCLVKDYFPEPVTVSWNSGALTSGVHTFPAVLQSSGLYSLSSVVTVPSSSLGTKTYTCNVDHKPSNTKVDKRVAPEFLGGPSVFLFPPKPKDTLMISRTPEVTCVVVDVSQEDPEVQFNWYVDGVEVHNAKTKPREEQFNSTYRVVSVLTVLHQDWLNGKEYKCKVSNKGLPSSIEKTISKAKGQPREPQVYTLPPSQEEMTKNQVSLTCLVKGFYPSDIAVEWESNGQPENNYKTTPPVLDSDGSFFLYSRLTVDKSRWQEGNVFSCSVMHEALHNHYTQKSLSLSLGK
light: not shown
notes: Half-molecule of one heavy and one light chain; also called hingeless IgG4 anti-CD20; IgG4 HG
  binding result: no binding
